Measured values as given in the nanobody polyreactivity screen of Harvey et al. (2022).

assay: yeast display, Sf9 membrane polyspecificity reagent, FACS + sequencing; frameworks hold sequencing errors
How it was run: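 In a synthetic yeast display library (Saccharomyces cerevisiae BJ5465), nanobody expression was induced with galactose for 36–48 hours. FACS gates were set low and high (top ~1%) using anti-HA fluorescence for expression and streptavidin fluorescence for binding of the Sf9 membrane reagent. Each polyreactivity label is drawn from the gate of origin.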

Sequence	polyreactivity (PSR sort gate)
QFQLVESGGGLVQAGGSLRLSCAASGSTFKYSAMGWYRQAPGKERELVAIIRSGGRTNYADSVKGRFTISRDNAKNTVYLQMNSLKPEDTAVYYCNARYGRYYGAYEYWGQGTQVTVSS	high polyreactivity
QFQLVESGGGLVQAGGSLRLSCAASGSTFPLYAMGWYRPAPGKERELVAAITSGGGNTYYADSVKGRFTISRDNAKNTVYLQMNSLKPEDTAVYSCAAVGGYKSYYSYEYDYWGQGTQVTVSS	low polyreactivity
QFQLVESGGGLVQAGGSLRLSCAASGSTFTNYAMGWYRQAPGKEREFVAAITFRGGRTYYADSVKGRFTISRHNAKNTVYLQLNSLKPEDTAVYYCNKRTSPKRFDYWGQGTQVTVSS	high polyreactivity
QFQLVESGGGLVQAGGSLRLSCAASGTFGSYAMGWYRHAPGKERELVASISGTGGDTYYADSVKGRFTISRDNAKNTVYLQMNSLKPEDTAVYYCAARWSRYWYLGSWLYDYWGQGSQVTVSS	high polyreactivity
QFQLVESGGGLVQAGGSLRLSCADSGFIFFSNARPWYRHAPGKDRELVAVIDRATSTYYADSVKGRFTISRDNAKYTVYLQMNSLKPEDTAVYYCNADGEEVYDCNYFLSFKGDYWGQGTQVTVSS	low polyreactivity
QFQLVESGGGLVQAGGTLRLSCAPSGFTFTLNPLGWYRQAPGKERQLVATIDWSGTSTYYADSVKGRFRISRDKAKNTFYLQMNCMKPVDTAVYYCARVYQGYPGFYDGEYWGQGNQVTVSS	low polyreactivity
QFQLVESGGGLVQARGSLRLSCAASGITFPVYAMGWYRQAPGKEREFVASIRFSTGRTYYADSVKGRFTISRDNAKNTVYLQINSLKPEDTAVYYCRGSTQSPYNSWGQGTQVTVSS	high polyreactivity
QFQLVESGGGLVQPGGSLRLSCAASGGIFKRYAIGWYRQAPGKERELVAGISRRSGRTYYADSVKGRFTISRDNAKNTVYLQMNSLKPEDTAVFYCAARGIGGYDYWGHGTQVTVSS	high polyreactivity
QFQLVESGGGLVQSGGSLRLSCAPTGLIFRPYAMGCYRQAPGKERELVAGINSGGNTDYADSVKGRFTISRDNAKNTVYLQMNSLKPEDTAVYYCNREYQVTIYDYCGQGTQVTVSS	low polyreactivity
QFQLVESVGGLVQAGGSLRLSCAASGFTFPSYAMGWYRQAPGKERELVAAISYRGGRTYYADSVKWRFTISRDNAKNTVYLQMNSLKPEDTAVYYCNALFATVPPWGFDYWGQGTQVTVSS	high polyreactivity
QFQLVESVGGLVQAGGSLRLSCAASGLNFSNYAMGWYRQAPGKERELVAVSSSRVSRTYYADSVKGRFTISRDNAKNTVYLQMISLKPEDTAVYYCAARDRTEFYYWGQGTQVTVSS	high polyreactivity
QFQLVESWGGLVPPGGILRLSCAASRSTFRYYPIGRYRQAPGHERELVAVISSSGSRTNYADSVKGRFTISRDTAKNTVYLQLNSLKPEDSAVYYCGAVSSYRYYADYYWGQGTQVTVSS	high polyreactivity
QFQLVETVGGLVQAGGSLRLSCAASGSIFPGYAMGWYRQAPGKERELVATITWSGGSTYYADSVKGRFTISRDNAKNTVYLQMYSLIPEDTAVYYFNADSNWYYQWNYYGLYDYWGKGTQVTVSS	low polyreactivity
QFQRVESGGGLVQAGGSLRLSCAASGRILSYKVMGWYRQAPGKEREFVASIRRTGVRTYYADSVKGRFTISRDNAKNTVYLQINSLKPEDTGVYYCNAANFHFWDYYYWGQGTQVTVSS	low polyreactivity
QGHLRESGGGLVQAGGSLRLTCAASGSNLWQYAMGWYRQATGKERELVAAITYSGGSTHYADSVKGRFTISRDNAKNTVYLQLNSLKPEDTAVYYCAAGSWYRYAALRYDHWGQGTQVTVST	low polyreactivity
QGHLVESGGGLVQAGGSLRLSCAASGITLTRYAMGWYRQAPWKERELVAAISTGGGSTYYADSVKGRFTFSRDNAKNTVYLQMNSLKPEDTAVYYCAARIRFARGYPITRTYDYWGQGTQVTVSS	high polyreactivity
QGHLVESGGRLVQAGGSLRLSCAASGRIFPTYTMGWYRQAPWKERELVAAIRRGGGRTYYADSVKGRFTISRDNAKKTVYLQMNSLKPEDTAVYYCAAPFYRQSLIEYDYWGQGTQVTVSS	high polyreactivity
QGQHVESGGGLVQAGGRLRLSCAASGSTFGDNAMGWSRQAPGKERELVAAISSGSGGSTYYADSVKGRFTISRDNAKNTVYLQMNSLKPEDTAVYYCADVGPYGYYYGHYGYWGQGTQVTVSS	low polyreactivity
QGQHVESGGGLVQAGGSLRLICAASGRIIVHYVMGWYRQAPRKERELVAAISRSGGRTYYADSVKGRFTISRDNAKNTVYLQMNSLKPEDTAVYYCATDASTDKYDYWGQGTQVTVSS	high polyreactivity
QGQHVETGGGLVQAGGRLRLSCAASGSTLRDYVMGWSRQAPGKERELVAAITSRVDDTYYADSVKGRFTISRDNAKNTVYLQMNSLKPEDTAVYYCAADSSVTLRIGGYYWFYAFDYWGQGTQVTVSS	low polyreactivity
QGQLEESGGGLVQAGGSLRLSCAASGITFNDYTMGWYRQAPGKEMELVAVITKTGSRTYYADSVKGRFTISRDNAKNTVYLQMNSLKPEDTAVYYCNALYYIHYYQGYGYWGQGTQVTVSS	high polyreactivity
QGQLEESGGGLVQAGGSLRLSCAASGNTFRSYAMGSYRQAPGKERELVAAISGRGGSTYYADSVKGRFTISRDNAKYTVFVQLNSLKPDDTAVYYCAAESRRVNYANDDWGQGTQVTVSS	high polyreactivity

Sequence	polyreactivity (PSR sort gate)
QGQLGESGGGLVQAGGSLRLSCAASGGTFYYYAMGWYRHAPGKEREFVAAITWTGGRTYYADSVKGRFTISRDNAKNTVYLQMNSLKPEDSAVYYCAASDRYGGRDYWGQGTQVTVSS	high polyreactivity
QGQLLESAGGLLQAGGSLRLSSAASGFNFQQYVMGWYRQARGNERELVASISRRGSRTYYADSVKGGFTISRDNAKNTVYLQMNSLKPEDTAVYYCAAPPSTSEGPYGYWGQGTQVSVSS	high polyreactivity
QGQLQESGGGLVKAGGSLRLSCPASGNISNHKDMGWYRQAPGKESEFVAGITAGGITNYADSVTGRFTICRDNAKNTVDLVMNSLKPEDTAVYYSAAYPDYAKSYGYWGQGTQATVSS	low polyreactivity
QGQLVESAGGLVQAGGSLRLSCGASGRSFYSYTMGWYRQAPVKERELVAAITRADRTHYADSVKGRFTISRDYATKHVDCERNSQKPEDTAVYYAATRQVYSVRYYYRGQGTQVTVSS	high polyreactivity
QGQLVESGGGLGQAGGSLRLSCGASGRTFDSYAMGWYRPAPGKEREFVAAISYSGTSTYYAVSVTGRFTISRDKAKNTVYLQMNSLIPEDTAVYYCAKEYTFRQWGQGTQVTVSS	low polyreactivity
QGQLVESGGGLVQAGCSLRLSCAASGITYTPYALGWYRQAPGKAREFVASISVSGGSTYYADSVKGRFRFSRVNAKNTVYLEMNCLKPEDTAVYYCNAVSYRKHYFNSLYGYWGLGTQVTVSS	high polyreactivity
QGQLVESGGGLVQAGGCLRLSCAASGAIFCYAMGWYRQAPGKERDLVAAISFSGVSTYYADSVKGRFTISRENAKNSVYLQMISLIPEDTAVYYCNAYSDGDEDYWGQGTKVTVSS	low polyreactivity
QGQLVESGGGLVQAGGILRLSCAASGIIFCRYAMGWYRQAPGKERELVATITWRGGSTYYADSVKARFTNSRDNAKNTVYLQMNSLKPEDTAVYSSAADTRPSRSFRARDYWGQGTQVTVSS	low polyreactivity
QGQLVESGGGLVQAGGKLRLSCAASGSIFVRYAIGWYRQAPGKERELVAAISTRGDTTYYADSVKGRFTNSRDNAKNTVYLQLNSLKPEDTAVFYCAAVASQYPGPRNYDYWGQGTQVTVSS	low polyreactivity
QGQLVESGGGLVQAGGRLRLSCAASGSIFASYAMGWYRQAPGKERELVAAITSDGNTYYADSVKGRFTISRDNAKNTVYLQMNSLKPEDTAVYYCAADRYSTYPYAKGTEFYYWGQGTQVTVSS	low polyreactivity
QGQLVESGGGLVQAGGRLRLSCAASGSTFYGNAMGWYRQAPGKERELVAAITWGDASTYYADSVKGRFTISRDNAKNPVYLQMNSLKPEDTAVSYCAVDESYGSSSDMDYWGQGTQVTVSS	low polyreactivity
QGQLVESGGGLVQAGGSIRLSCAAYGSTFNVNAMGLYRQAPGKERELVAAISRSCVSTYYADSVKWRFTISRDNAKNTVYLQMNSLKPEDTAVYYCNAYPGNWRGYRMDYWGQGNQVTVSS	high polyreactivity
QGQLVESGGGLVQAGGSLRFSCAASGRTLSAHAMGWYREAPGTERELVATISTRGGRTYYADSVKGRFTISRDHAKNTVYIQMNSLKPEHTAVYSCAVTIRAKYTLKEDYWGQGTQVTVSS	low polyreactivity
QGQLVESGGGLVQAGGSLRISSAASGGNFPGNTMGWYRLAPGKESELVAAISNGVSTNYADSVKGGFTISRDNAKNTVYLQMNSQKPEDTAVYYCAAEWSWWDGEDYHFEYDYWGQGTQVTVSS	low polyreactivity
QGQLVESGGGLVQAGGSLRLSCAASGFIFFYYAMGWYRQAPRKERELVATISANGGNTYYADSVKGRFTISRDNAKNTVYLQMNSLKPEDTAVSYCARYTWYLRDWQWYYWGDEDYWGQGTQVTVSS	high polyreactivity
QGQLVESGGGLVQAGGSLRLSCAASGFIFRYYTMGWYRQAPGKERELVAAITSRGGSTYYADSVKGRFTISRDNAKNTFYLQMNSLKPEDTAVYYCATTRWGYEYWGQGTQVTVSS	high polyreactivity
QGQLVESGGGLVQAGGSLRLSCAASGFIFSKYAMGWYRQAPGKERELVAAISYRTVRTYYADSVKGRFTISRDNAKNTVDLQMNSLKPEDTAVYYCAADSRYWLYDYWGQGTQVTVSS	high polyreactivity
QGQLVESGGGLVQAGGSLRLSCAASGFNFRRYAMGWYRHAPGKERELVAVITSGGSTYYADSVKGRFTISRDYAKNTVYLQMNSLKPEDTAVYYCASRYYWYSQEYVLSSWWGDYWGLGTQVTVSS	high polyreactivity
QGQLVESGGGLVQAGGSLRLSCAASGFTFRGYAMGWYRQAPGKERELVATITSGGDTNDADSVKGRFTISRDNAKKTVYLQMNSLKPEDTAVYYCAAHDWEFVEEAGPVPWTPYDYWGQGTQVTVSS	low polyreactivity
QGQLVESGGGLVQAGGSLRLSCAASGFTFVYNAMGWYRQAPGKERELVAAITSGGNTYYADSVKGRFTISRDNAKNTVYLQMNSLKPEDTAVYYCAALSYYRFSQEDDYWGQGTQVTVSS	high polyreactivity
QGQLVESGGGLVQAGGSLRLSCAASGGIFDSNAMGWYRQARGKERELVAAISDSGGSTYYADSVKGRFTITRDNAKNTVYLQMNSLKTDDTAVYDCAADSDYHFLNYRFGMDYWGQGTQVTVSS	low polyreactivity
